Data: patent publication US20060246520A1, “Gamma delta t cell-mediated therapy” (INSTITUT NATIONAL DE LA SANTE ET DE LA RECHERCHE MEDICALE, priority 2003, published 2006)
Each block holds one molecule with its values, some of them ahead of it.

Tests used:
[1] = system: immobilized Vγ9Vδ2TCR; test: SPR: purified apolipoprotein binding to immobilized Vγ9Vδ2TCR; parameters: species or system human; details: soluble proteins injected at 100 μg/ml; immobilized TCR 335 RU
Description: FIG. 7. Surface plasmon resonance analysis. Soluble proteins were exposed to the sensorchip surface for 240 s (association phase) followed by a 240-s flow running (dissociation phase). Immobilized proteins were on sensorchips flowcell 2. Sensorgrams are representative of specific interactions (differential response) where non-specific binding that occurred on flow cell 1 (with no protein immobilized) was deduced from binding that occurred on flow cell 2. Results are expressed as resonance units (RU) as a function of time in seconds.
(c) Comparative sensorgrams of purified apoA-I (full line) and apoA-II (dotted line) binding to immobilized Vγ9Vδ2TCR (proteins were injected at 100 μg/ml). Amount of immobilized TCRγδ protein was 335 RU on flow cell 2.
ApoA-I and ATP synthase (F1 subunit) were immobilized by amine linkage on CM5 chips (Biacore AB) following NHS-EDC activation; Vγ9Vδ2-biotinylated soluble TCRs were immobilized on SA streptavidin-coated chips (Biacore AB) and binding was analyzed in a Biacore 3000 apparatus (BiacoreAB). Soluble ligands were injected at a flow rate of 20 μl/min, exposed to the surface for 240 s (association phase) followed by a 240-s flow running during which the dissociation occurred. […] Results are expressed as resonance units (RU) as a function of time in seconds.

[2] = system: K562 cells; test: PE-labelled TCR tetramer staining of serum-depleted K562 cells incubated with apolipoproteins or competing mAb; format: cell-based, human; details: serum-depleted K562, apolipoprotein preparations 100 μg/ml
Procedure: FIG. 3: Vγ9Vδ2 TCR binding to tumor cells and apoA-I. PE-labeled tetrameric TCRs from clone G115 and clone 73R9 were used to stain tumor cell lines and assess the influence of apolipoproteins on their tumor recognition. Shaded histograms: concentration-matched streptavidin-PE alone. Line histograms: binding of the indicated PE-labelled tetrameric TCR. (a) Cell lines were cultured in 10% fcs before staining with tetramers. (b) K562 cells were serum-depleted, incubated with 10% human serum or the indicated apolipoprotein preparations (100 μg/ml) and stained with G115 or 73R9 TCR tetramers. (c) Serum-depleted K562 cells were incubated with 100 μg/ml of HDL hApoA-I (left histogram) or hM5L (right histogram) and labeled with G115 TCR tetramers in the presence of the indicated competing mAb (20 μg/ml). […] Data are representative of three experiments.
Immunofluorescence stainings were performed in PBS containing 1% BSA and devoid of serum using FITC-conjugated goat F(ab)′2 anti-mouse Ig antibody (Caltag) as the second step reagent. Irrelevant isotype-matched control antibodies were used as negative controls. In apolipoprotein binding experiments, serum-deprived cells were incubated with serum or purified protein preparations in PBS containing 1% BSA, at room temperature, 30 minutes prior to antibody staining. 7H10 (anti-α-ATP synthase) and 3D5 (anti-β-ATP synthase) and 7F9 (anti-γ-ATP synthase) are from Molecular Probes. 4H1 (anti-human apoA-I) (Collet et al., 1997) was obtained from Dr Y. Marcel (Ottawa).
The G115 (Vγ9Vδ2) (3) and 73R9 (Vγ8Vδ3) extracellular γ and δ chains (the latter carrying a short 3′ Biotin tag) were expressed in Escherichia coli, then refolded together by rapid dilution in 1 L of 1 M L-arginine, 0.1 M Tris-HCl, pH 8.0 and 0.2 mM reduced/0.2 mM oxidized glutathione. After dialysis against 10 mM Tris-HCl pH 8.0, concentration by cation exchange chromatography at pH 5.5, and purification by size exclusion chromatography at pH 8.0, the refolded protein was biotinylated for 4 h at 30° C. with 6 μg/ml BirA and excess of free biotin was removed by dialysis against 10 mM Tris-HCl pH 8.0, 150 mM NaCl. Tetramers of γδ TCR heterodimers were obtained by mixing the biotinylated TCR with phycoerythrin-labeled streptavidin (Biosource) at a molar ratio of 10:1. For staining, 2.10^5 cells were incubated at room temperature for 45 min with phycoerythrin-labeled γδ TCR tetramers at a concentration of TCR of 30 μg/ml in PBS plus 1% BSA. Background staining was determined using phycoerytlrin-labeled streptavidin at the same concentration.

[3] = system: Vγ9Vδ2 T cells; test: TNFα secretion by T cell clones stimulated with protein-coated latex beads; format: cell-based, human; details: serum-free (sfm)
Description: FIG. 6: Induction of Vγ9Vδ2 T cell lymphokine secretion by immobilized ATP-synthase. HDL-derived apoA-I and ATP synthase were immobilized on latex beads and these were used to stimulate T cell populations. none: no stimulation; empty: beads saturated with BSA; apoA-I: beads coated with apoA-I only. AS: beads coated with the F1 extra-membrane subunit of bovine ATP synthase. AS/apoA-I: beads coated with both protein preparations.
[…] The capacity of γδ clones G25, G115, 73R9 to secrete significant amounts of TNFα upon stimulation was checked by using Daudi cells as target cells as well as PMA/ionomycin or PHA. The αβ clone A4.19 secretes saturating quantities of TNFα upon PMA/ionomycin or PHA stimulation (not shown). […]
2 h- ^51Cr-release assays were performed in standard conditions except for the use of serum-free conditions in some experiments: in sensitization experiments with apolipoprotein preparations, target tumor cells were serum-deprived as described for facs analysis, loaded with ^51Cr (100 μCi/10^6 cells, 1 hour, 37° C.), extensively washed in RPMI and resuspended in sfm medium. […] Specific lysis was calculated as the percentage of maximum release. […] IFNγ was titrated by a specific Elisa technique, whereas TNFα concentration was assessed by a biological assay based on WEHI cells viability. […]

[4] = system: Raji cells; test: 125I-labelled free apoA-I binding assay on Raji cells; parameters: species or system human; details: 2 hours at 4° C.
Procedure: (§1) (e): ^125I-labelled free apoA-I binding was measured after 2 hours incubation at 4° C. on Daudi and Raji cells. Top and bottom panels: binding isotherm of ^125I-labeled free apoA-I to Daudi (top) and Raji (bottom) cells. (◯): total binding, (σ): non-specific binding; (●): specific binding. Middle panel: Scatchard representation of specific binding on Daudi cells.
(§2) The binding experiments were performed at 4° C. for 2 hours as previously described (Barbaras et al., 1994). Briefly, cells (9 μg of cell proteins per point) were incubated in PBS for 2 hours at 4° C. with increasing concentrations of labeled apoA-I. Cells were filtered on 0.22 μm filters (GVWP Millipore-France) and washed four times with 1% BSA in PBS. Filters were used for radioactivity measurements. Non-specific binding was determined in the presence of a 100-fold excess (as compared to the KD value) of the corresponding unlabeled ligand. Binding was analyzed using a weighted non-linear curve-fitting program, based on the LIGAND analysis program (Prism-GraphPad).

[5] = system: Daudi cells; test: 125I-labelled free apoA-I binding assay on Daudi cells (Scatchard); parameters: species or system human; details: 2 hours at 4° C.; single binding receptor; read-out: KD of binding to Daudi cells (Scatchard analysis)
Procedure: as §1, §2

[6] = molecular target: single binding receptor for apoA-I on Daudi cells; test: Scatchard analysis of 125I-labelled free apoA-I binding to Daudi cells, 2 h at 4° C.
[7] = molecular target: purified bovine ATP synthase (F1 subunit) (bovine) (UniProt P19483); test: SPR (Biacore 3000), ATP synthase (F1) immobilized (22440 RU), TCR injected at 0.5 to 4 µM
[8] = molecular target: human lipid-free apoA-I prepared from high density lipoprotein particles (HDL-apoA-I) (human) (UniProt P02647); test: SPR (Biacore 3000), apoA-I immobilized (2260 RU), TCR injected at 125 nM to 2 µM
[9] = system: Daudi cells; test: 51Cr release assay of Daudi cytolysis by effector T cell clones in serum-free medium; format: cell-based, human; details: serum-depleted targets
Procedure: FIG. 2: ApoA-I-dependent activation of Vγ9Vδ2 T cells. ^51Cr release assays were performed in serum-free medium (sfm) to assess dependance on serum and apoA-I of Daudi cytolysis by different effector T cell populations. G25 and G42: Vγ9Vδ2 T cell clones, 73R9: Vγ8Vδ3 T cell clone. M5L (bovine serum component immunopurified with M5 antibody) was tested at the indicated concentration for its ability to substitute for serum (fcs). Recombinant annexin V was used as a control purified protein.
2 h- ^51Cr-release assays were performed in standard conditions except for the use of serum-free conditions in some experiments: in sensitization experiments with apolipoprotein preparations, target tumor cells were serum-deprived as described for facs analysis, loaded with ^51Cr (100 μCi/10^6 cells, 1 hour, 37° C.), extensively washed in RPMI and resuspended in sfm medium. Effector T cells cultivated in serum-containing medium were washed extensively in RPMI, incubated for 2 hours in sfm at 37° C. and resuspended in sfm medium. […] Specific lysis was calculated as the percentage of maximum release. […] IFNγ was titrated by a specific Elisa technique, whereas TNFα concentration was assessed by a biological assay based on WEHI cells viability.

Chain of UniProt P02647 (P02647 25-267 limits assumed): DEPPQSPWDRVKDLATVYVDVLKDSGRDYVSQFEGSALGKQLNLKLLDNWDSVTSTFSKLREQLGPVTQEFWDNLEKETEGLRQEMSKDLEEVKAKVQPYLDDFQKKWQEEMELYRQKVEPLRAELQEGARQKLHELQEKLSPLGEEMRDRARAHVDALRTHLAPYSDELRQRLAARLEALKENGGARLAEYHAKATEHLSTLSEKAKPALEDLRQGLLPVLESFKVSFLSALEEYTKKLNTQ

Kd [6]: 80 nM
Molecule: human lipid-free apoA-I prepared from high density lipoprotein particles (HDL-apoA-I) (from UniProt P02647 25-267) (ligand)

Kd [7]: 1510 nM
koff [7]: 0.00254 s⁻¹
kon [7]: 1680 M⁻¹ s⁻¹
Kd [8]: 810 nM
koff [8]: 0.00713 s⁻¹
kon [8]: 8800 M⁻¹ s⁻¹
Molecule: soluble monomeric G115 TCR (Vγ9Vδ2)

The remaining lines, values behind:

Molecule: apolipoprotein A-I [apoA-I]
interaction with immobilized G115 TCR [1]: specifically interacted
effect on Vγ9Vδ2 TCR tetramer binding to K562 [2]: increased
effect on binding of Vγ8Vδ3 TCR tetramers to K562 [2]: neither serum, nor apoA-I, affected the binding
stimulatory activity on Vγ9Vδ2 T cells in serum-free conditions [3]: relatively minor increase
specific binding on Raji cells [4]: absence of specific binding
Kd [5]: 80 nM

Molecule: apoA-II: purified apolipoprotein A-II, control of hydrophobicity similar to that of apoA-I [reference compound]
effect on Vγ9Vδ2 TCR tetramer binding to K562 [2]: did not enhance

Molecule: hM5L: human serum ligand of M5 mAb, immunopurified; identity to apoA-I confirmed
effect on Vγ9Vδ2 TCR tetramer binding to K562 [2]: increased

B1: M5L: bovine serum component immunopurified with M5 antibody, ~28 kDa, identified as apolipoprotein A-I (protein, UniProt P15497 25-265, looked up)
Apolipoprotein A-I: DDPQSSWDRVKDFATVYVEAIKDSGRDYVAQFEASALGKQLNLKLLDNWDTLASTLSKVREQLGPVTQEFWDNLEKETASLRQEMHKDLEEVKQKVQPYLDEFQKKWHEEVEIYRQKVAPLGEEFREGARQKVQELQDKLSPLAQELRDRARAHVETLRQQLAPYSDDLRQRLTARLEALKEGGGSLAEYHAKASEQLKALGEKAKPVLEDLRQGLLPVLESLKVSILAAIDEASKKLNAQ
effect on Daudi cell lysis by control Vγ8Vδ3 T cell clone (#73R9) [9]: neither affected by serum deprivation nor by addition of M5L
effect on Vγ9Vδ2 T cell-mediated lysis of Daudi cells ([9]; Vγ9Vδ2 clones G25, G42): increased Vγ9Vδ2 T cell-mediated lysis in a dose-dependent manner
